Reference: patent publication US20190233493A1 (Sanofi, published 2019)
*1 amine or outer side, *2 acyl side, *3 side chain or, on linkers, in order; H or OH if unused. Primed or numbered codes have the meaning given here. Side-chain parts run from the residue outwards. [ ]: non-standard residue; d: D form. The star is where a group is joined. Lys(Me3) = C[N+](C)(C)CCCC[C@H](N)C(=O)O; γGlu = O=C(O)[C@H](CCC(=O)[*:2])N[*:1]; Arg(Me) = CNC(=N)NCCC[C@H](N)C(=O)O; Stearoyl = CCCCCCCCCCCCCCCCCC(=O)*; Palmitoyl = CCCCCCCCCCCCCCCC(=O)*; αMeK = C[C@](N)(CCCCN)C(=O)O; Nle = CCCC[C@H](N)C(=O)O; PEG2′ = PEG2 spacer unit; Aib = CC(C)(N)C(=O)O

Biological target: T1, RXFP1 receptor (UniProt Q9HBX9 1-757, limits assumed)
T1 sequence (looked up): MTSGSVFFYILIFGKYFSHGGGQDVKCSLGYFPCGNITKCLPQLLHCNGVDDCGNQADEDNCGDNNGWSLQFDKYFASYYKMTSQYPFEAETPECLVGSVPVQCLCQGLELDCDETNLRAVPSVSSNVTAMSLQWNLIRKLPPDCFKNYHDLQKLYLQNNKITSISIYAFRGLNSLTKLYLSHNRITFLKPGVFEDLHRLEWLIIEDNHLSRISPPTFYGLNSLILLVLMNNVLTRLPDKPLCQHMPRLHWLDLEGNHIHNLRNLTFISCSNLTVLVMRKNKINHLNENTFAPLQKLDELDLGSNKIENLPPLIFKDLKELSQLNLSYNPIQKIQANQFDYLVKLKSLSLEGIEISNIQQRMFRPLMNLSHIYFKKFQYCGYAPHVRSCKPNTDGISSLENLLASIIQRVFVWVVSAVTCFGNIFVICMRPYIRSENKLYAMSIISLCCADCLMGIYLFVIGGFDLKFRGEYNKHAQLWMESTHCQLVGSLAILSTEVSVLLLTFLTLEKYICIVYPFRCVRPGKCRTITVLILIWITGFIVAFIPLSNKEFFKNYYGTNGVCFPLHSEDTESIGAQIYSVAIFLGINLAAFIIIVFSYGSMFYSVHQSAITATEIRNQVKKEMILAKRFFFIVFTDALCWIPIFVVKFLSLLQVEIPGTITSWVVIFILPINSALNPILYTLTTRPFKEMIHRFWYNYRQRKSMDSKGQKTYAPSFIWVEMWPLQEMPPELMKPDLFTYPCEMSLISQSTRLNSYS
Assay: cell-based or functional assay

B1: peptide of SEQ ID NO: 134 (peptide)
peptide: Ac-LEGREKVRAK(Ac)I[Aib][Aib]EG[Nle]STWS[Aib]R[Lys(Me3)]K(Ac)K([PEG2′-PEG2′-PEG2′-γGlu-γGlu-γGlu-Stearoyl])-NH2
With B1 the “EC50 (nM), OVCAR 5 cells (cAMP)” value was 6.3 nM and the “EMax, OVCAR 5 cells (cAMP)” value was 100%.

B2: peptide of SEQ ID NO: 135 (peptide)
peptide: Ac-LEGREKVRAK(Ac)I[Aib][Aib]EG[Nle]STWS[αMeK]RAK(Ac)K([PEG2′-PEG2′-PEG2′-PEG2′-γGlu-γGlu-γGlu-Stearoyl])-NH2
With B2 the “EC50 (nM), OVCAR 5 cells (cAMP)” value was 0.95 nM and the “EMax, OVCAR 5 cells (cAMP)” value was 97%.

B3: peptide of SEQ ID NO: 14 (peptide)
peptide: Ac-LEGREKVRAK(Ac)I[Aib][Aib]EG[Nle]STWS[Aib]RKK(Ac)[PEG2′][PEG2′][PEG2′]K([γGlu-γGlu-γGlu-Stearoyl])-NH2
With B3 the “EC50 (nM), OVCAR 5 cells (cAMP)” value was 0.04 nM and the “EMax, OVCAR 5 cells (cAMP)” value was 88%.

B4: peptide of SEQ ID NO: 136 (peptide)
peptide: Ac-LEGREKVRAK(Ac)I[Aib][Aib]EG[Nle]STWSXRKK(Ac)[PEG2′][PEG2′][PEG2′][PEG2′][γGlu][γGlu][γGlu]K([γGlu-Palmitoyl])-NH2
modifications: not fully specified (some residues); printed as Ac-L-E-G-R-E-K-V-R-A-K(Ac)-I-Aib-Aib-E-G-Nle-S-T-W-S-Mly-R-K-K(Ac)-PEG2-PEG2-PEG2-PEG2-gE-gE-gE-K(gE-Palm)-NH2
With B4 the “EC50 (nM), OVCAR 5 cells (cAMP)” value was 0.03 nM and the “EMax, OVCAR 5 cells (cAMP)” value was 92%.

B5: peptide of SEQ ID NO: 137 (peptide)
peptide: Ac-LEGREKVRAK(Ac)I[Aib][Aib]EG[Nle]STWS[Aib][Arg(Me)][Lys(Me3)]K(Ac)K([PEG2′-PEG2′-PEG2′-γGlu-γGlu-γGlu-Stearoyl])-NH2
In the case of B5, the “EC50 (nM), OVCAR 5 cells (cAMP)” value is reported as 0.21 nM and the “EMax, OVCAR 5 cells (cAMP)” value is reported as 92%.

B6: peptide of SEQ ID NO: 138 (peptide)
peptide: Ac-LEGREKVRAK(Ac)I[Aib][Aib]EG[Nle]STWS[αMeK][Arg(Me)][Lys(Me3)]K(Ac)K([PEG2′-PEG2′-PEG2′-γGlu-γGlu-γGlu-Stearoyl])-NH2
For B6, the “EC50 (nM), OVCAR 5 cells (cAMP)” value was 0.02 nM and the “EMax, OVCAR 5 cells (cAMP)” value was 91%.

B7: peptide of SEQ ID NO: 139 (peptide)
peptide: Ac-LEGREKVRAK(Ac)I[Aib][Aib]EG[Nle]STFSXAAK(Ac)[PEG2′][PEG2′][PEG2′][PEG2′][γGlu][γGlu][γGlu]K([γGlu-Palmitoyl])-NH2
modifications: not fully specified (some residues); printed as Ac-L-E-G-R-E-K-V-R-A-K(Ac)-I-Aib-Aib-E-G-Nle-S-T-F-S-Mly-A-A-K(Ac)-PEG2-PEG2-PEG2-PEG2-gE-gE-gE-K(gE-Palm)-NH2
With B7 the “EC50 (nM), OVCAR 5 cells (cAMP)” value was 0.3 nM and the “EMax, OVCAR 5 cells (cAMP)” value was 92%.

B8: peptide of SEQ ID NO: 140 (peptide)
peptide: Ac-LEGREKVRAK(Ac)I[Aib][Aib]EG[Nle]STFS[αMeK]RKK(Ac)K([PEG2′-PEG2′-PEG2′-PEG2′-γGlu-γGlu-γGlu-γGlu-Palmitoyl])-NH2
For B8, the “EC50 (nM), OVCAR 5 cells (cAMP)” value was 0.4 nM and the “EMax, OVCAR 5 cells (cAMP)” value was 88%.

B9: peptide of SEQ ID NO: 141 (peptide)
peptide: Ac-LEGREKVRAK(Ac)I[Aib][Aib]EG[Nle]STWS[αMeK][Arg(Me)][Lys(Me3)]K(Ac)K([PEG2′-PEG2′-PEG2′-PEG2′-γGlu-γGlu-γGlu-γGlu-Palmitoyl])-NH2
B9 was tested, and the “EC50 (nM), OVCAR 5 cells (cAMP)” value was 0.16 nM and the “EMax, OVCAR 5 cells (cAMP)” value was 87%.

B10: peptide of SEQ ID NO: 143 (peptide)
peptide: Ac-LEGREKVRAK(Ac)I[Aib][Aib]EG[Nle]STFS[αMeK]RKK(Ac)[PEG2′][PEG2′][PEG2′][PEG2′]K([γGlu-γGlu-γGlu-γGlu-Palmitoyl])-NH2
In the case of B10, the “EC50 (nM), OVCAR 5 cells (cAMP)” value is reported as 0.4 nM and the “EMax, OVCAR 5 cells (cAMP)” value is reported as 88%.
